Reference: patent publication US20170058268

Legend:
Assay in all cases: cell_activity
Settings in all cases: E. coli, bisulfite
[1] = biological target: Split M.SssI (1-272)-HS1 / HS2-M.SssI (273-386), 'wild-type' KFNSE at 297-301 (Spiroplasma sp. (M.SssI)?) (UniProt P15840)
[2] = biological target: Split M.SssI-HS1/HS2 variant CFESY K297C,N299E,E301Y (Spiroplasma sp. (M.SssI)?) (UniProt P15840)
[3] = biological target: Split M.SssI-HS1/HS2 variant PFCSY K297P,N299C,E301Y (Spiroplasma sp. (M.SssI)?) (UniProt P15840+P15840)
Sequence of Split M.SssI-HS1/HS2 variant PFCSY K297P,N299C,E301Y (Spiroplasma sp. (M.SssI)?) (P15840 whole entry, stated change not applied, chain 1 of 2): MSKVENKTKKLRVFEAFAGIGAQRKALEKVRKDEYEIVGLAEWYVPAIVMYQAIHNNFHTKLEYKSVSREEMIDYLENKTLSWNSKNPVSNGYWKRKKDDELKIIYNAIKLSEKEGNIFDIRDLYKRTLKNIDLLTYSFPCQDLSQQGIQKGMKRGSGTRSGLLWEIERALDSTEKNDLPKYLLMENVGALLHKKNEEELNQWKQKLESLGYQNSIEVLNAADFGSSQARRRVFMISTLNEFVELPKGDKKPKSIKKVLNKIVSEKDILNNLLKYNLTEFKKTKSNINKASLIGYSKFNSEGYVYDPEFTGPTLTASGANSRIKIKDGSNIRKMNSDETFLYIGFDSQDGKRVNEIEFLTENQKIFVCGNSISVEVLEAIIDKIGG
Sequence of Split M.SssI-HS1/HS2 variant PFCSY K297P,N299C,E301Y (Spiroplasma sp. (M.SssI)?) (P15840 whole entry, stated change not applied, chain 2 of 2): as the sequence (P15840 whole entry, stated change not applied, chain 1 of 2) above

Sequence of Split M.SssI (1-272)-HS1 / HS2-M.SssI (273-386), 'wild-type' KFNSE at 297-301 (Spiroplasma sp. (M.SssI)?) (P15840 other isoform, or with tags, fused parts or gaps, chain 1 of 2): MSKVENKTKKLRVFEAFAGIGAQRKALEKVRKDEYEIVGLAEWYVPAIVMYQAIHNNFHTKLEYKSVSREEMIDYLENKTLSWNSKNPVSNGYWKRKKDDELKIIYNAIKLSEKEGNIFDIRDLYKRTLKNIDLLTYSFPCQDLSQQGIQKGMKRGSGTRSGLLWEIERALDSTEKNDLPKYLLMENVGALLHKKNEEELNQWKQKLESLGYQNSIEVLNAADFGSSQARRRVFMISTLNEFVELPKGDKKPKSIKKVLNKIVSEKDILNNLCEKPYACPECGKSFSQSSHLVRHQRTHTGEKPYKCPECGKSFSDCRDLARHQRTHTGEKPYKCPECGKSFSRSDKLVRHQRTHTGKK
Sequence of Split M.SssI (1-272)-HS1 / HS2-M.SssI (273-386), 'wild-type' KFNSE at 297-301 (Spiroplasma sp. (M.SssI)?) (P15840 other isoform, or with tags, fused parts or gaps, chain 2 of 2): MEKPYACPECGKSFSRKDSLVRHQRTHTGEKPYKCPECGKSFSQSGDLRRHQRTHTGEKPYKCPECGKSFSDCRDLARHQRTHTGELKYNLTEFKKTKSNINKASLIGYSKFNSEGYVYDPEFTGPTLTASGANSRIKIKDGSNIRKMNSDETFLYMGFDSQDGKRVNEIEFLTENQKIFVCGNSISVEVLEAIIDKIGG
Sequence of Split M.SssI-HS1/HS2 variant CFESY K297C,N299E,E301Y (Spiroplasma sp. (M.SssI)?) (P15840 other isoform, or with tags, fused parts or gaps K297C N299E E301Y, chain 1 of 2): as the sequence (P15840 other isoform, or with tags, fused parts or gaps, chain 1 of 2) above
Sequence of Split M.SssI-HS1/HS2 variant CFESY K297C,N299E,E301Y (Spiroplasma sp. (M.SssI)?) (P15840 other isoform, or with tags, fused parts or gaps K297C N299E E301Y, chain 2 of 2): as the sequence (P15840 other isoform, or with tags, fused parts or gaps, chain 2 of 2) above, with K111C, N113E, E115Y counted along it

| Substance | activity [1] | activity ([2]; 70-80% by restriction protection, also target-only methylation in HEK293) | activity [3] | activity ([1]; all off-target CpGs) | activity ([2]; all off-target CpGs) | activity ([3]; all off-target CpGs) |
| --- | --- | --- | --- | --- | --- | --- |
| HS1/HS2 target site (FspI CpG flanked by HS1 and HS2 sites, plasmid) | 94.1 % methylated | 42.1 % methylated | 78.9 % methylated |  |  |  |
| Non-target site (SnaBI CpG or surrounding CpGs, no ZF sites, plasmid) |  |  |  | 49.5 % methylated | 0.71 % methylated | 0.84 % methylated |
